The text below walks through data of the RNAGym collection of RNA variant scans (doi:10.7554/elife.80360).

To fix the notation:
B1: CPEB3 Ribozyme (parent)
chain: GGGGGCCACAGCAGAAGCGUUCACGUCGCGGCCCCUGUCAGAUUCUGGUGAAUCUGCGAAUUCUGCUGU

This data set covers variants of B1. Put plainly: self-cleavage, relative activity (ratio to wild type); higher = more cleavage; co-transcriptional.
Regarding GGGGUCCACAGCAGAAGCGAUCACGUCGCGGCCCCUGUCAGAUUCUGGUGAAUCUGCGAAUUCUGCUGU [G5U U20A], the self-cleavage worked out at 0.0505.
Under GGGGUCCACAGCAGAAGCGCUCACGUCGCGGCCCCUGUCAGAUUCUGGUGAAUCUGCGAAUUCUGCUGU [G5U U20C] stands 0.0958; under GGGGUCCACAGCAGAAGCGGUCACGUCGCGGCCCCUGUCAGAUUCUGGUGAAUCUGCGAAUUCUGCUGU [G5U U20G], 0.0745; under GGGGUCCACAGCAGAAGCGUUCACGUCGCGGCCCCUGUCAGAUUCUGGUGAAUUUGCGAAUUCUGCUGU [G5U C54U], 0.231.
With GGGGUCCACAGCAGAAGCGUUCACGUCGCGGCCCCUGUCAGAUUCUGGUCAAUCUGCGAAUUCUGCUGU [G5U G50C], the self-cleavage turned out to be 0.341.
For the variant GGGGUCCACAGCAGAAGCGUUCACGUCGCGGCCCCUGUCAGAUUCUGGUUAAUCUGCGAAUUCUGCUGU [G5U G50U], the self-cleavage was determined as 0.313.
GGGGUCCACAGCAGAAGCGUUCACGUCGCGGCCCCUGUCAGAUUCUGGCGAAUCUGCGAAUUCUGCUGU [G5U U49C]: the self-cleavage was found to be 0.232.
As to GGGGUCCACAGCAGAAGCGUUCACGUCGCGGCCCCUGUCAGAUUCUGGAGAAUCUGCGAAUUCUGCUGU [G5U U49A], the self-cleavage amounted to 0.316.
In the case of GGGGUCCACAUCAGAAGCGUUCACGUCGCGGCCCCUGUCAGAUUCUGGUGAAUCUGCGAAUUCUGCUGU [G5U G11U], the self-cleavage is 0.098.
Regarding GGGGUCCACAGCAGAAGCGUUCACGGCGCGGCCCCUGUCAGAUUCUGGUGAAUCUGCGAAUUCUGCUGU [G5U U26G], the self-cleavage worked out at 0.103.
Under GGGGUCCACAGCAGAAGCGUUCACGACGCGGCCCCUGUCAGAUUCUGGUGAAUCUGCGAAUUCUGCUGU [G5U U26A] stands 0.132; under GGGGUCCACAGCAGAAGCGUUCAGGUCGCGGCCCCUGUCAGAUUCUGGUGAAUCUGCGAAUUCUGCUGU [G5U C24G], 0.0967; under GGGGUCCACAGCAGAAGCGUUCAUGUCGCGGCCCCUGUCAGAUUCUGGUGAAUCUGCGAAUUCUGCUGU [G5U C24U], 0.0968.
On to GGGGUCCACAGCAGAAGCGUUCACGUCGCGGCCCCUGUCAGAGUCUGGUGAAUCUGCGAAUUCUGCUGU [G5U U43G], for which the self-cleavage is 0.161.
GGGGUCCACAGCAGAAGCGUUCACGUCGGGGCCCCUGUCAGAUUCUGGUGAAUCUGCGAAUUCUGCUGU [G5U C29G]: the self-cleavage stood at 0.0724.
Under GGGGUCCACAGCAGAAGCGUUCACGUCGAGGCCCCUGUCAGAUUCUGGUGAAUCUGCGAAUUCUGCUGU [G5U C29A] stands 0.0808; under GGGGUCCACAGCAGAAGCGUUCACGUCGCGGCCCCUGUCAGAUUCAGGUGAAUCUGCGAAUUCUGCUGU [G5U U46A], 0.24; under GGGGUCCACAGCAGAAGCGUUCACGUCGCGGCCCCUGUCAGAUUCCGGUGAAUCUGCGAAUUCUGCUGU [G5U U46C], 0.254.
Regarding GGGGUCCACAGCAGAAGCGUUCACGUCGCGGCCCCUGUCAGAUUCGGGUGAAUCUGCGAAUUCUGCUGU [G5U U46G], the self-cleavage is 0.321.
With GGGGUCCACAGCAGAAGCGUUCACGUCUCGGCCCCUGUCAGAUUCUGGUGAAUCUGCGAAUUCUGCUGU [G5U G28U], the self-cleavage was determined as 0.0687.
GGGGUCCACAGCAGAAGCGUUCACGUCCCGGCCCCUGUCAGAUUCUGGUGAAUCUGCGAAUUCUGCUGU [G5U G28C]: the self-cleavage stood at 0.0876.
Under GGGGUCCACAGCAGAAGCGUUCACGUCACGGCCCCUGUCAGAUUCUGGUGAAUCUGCGAAUUCUGCUGU [G5U G28A] stands 0.046; under GGGGUCCACAGCAGAAGCGUUCACGUCGCGGCCCCUGUUAGAUUCUGGUGAAUCUGCGAAUUCUGCUGU [G5U C39U], 0.101.
Regarding GGGGUCCACAGCAGAAUCGUUCACGUCGCGGCCCCUGUCAGAUUCUGGUGAAUCUGCGAAUUCUGCUGU [G5U G17U], the self-cleavage came to 0.0412.
As to GGGGUCCACAGCAGAACCGUUCACGUCGCGGCCCCUGUCAGAUUCUGGUGAAUCUGCGAAUUCUGCUGU [G5U G17C], the self-cleavage was determined as 0.0663.
Turning to GGGGUCCACAGCAGAAACGUUCACGUCGCGGCCCCUGUCAGAUUCUGGUGAAUCUGCGAAUUCUGCUGU [G5U G17A], the self-cleavage was determined as 0.082.
For GGGGUCCACAGCAGAAGCGUUCACGUCGCGGCCCCUGUCAGAUUCUGGUGAAUCUGCGAAUUCUGCUCU [G5U G68C], the self-cleavage was 0.716.
With GGGGUCCACAGCAGAAGCGUUCACGUCGCGGCCCCUGUCAGAUUCUGGUGAAUCUGCGAAUUCUGCUAU [G5U G68A], the self-cleavage is 0.886.
Turning to GGGGUCCACAGCAGAAGCGUUCACGUCGCGGCCCCUGUCAGAUUCUGGUGAAUCUGCGAAUUCUGCUUU [G5U G68U], the self-cleavage was determined as 0.793.
Regarding GGGGUCCACAGCAGAAGCGUUCACGUCGCGGCCCCUGUCAGAUUCUGGUGAAGCUGCGAAUUCUGCUGU [G5U U53G], the self-cleavage is 0.152.
Under GGGGUCCACAGCAGAAGCGUUGACGUCGCGGCCCCUGUCAGAUUCUGGUGAAUCUGCGAAUUCUGCUGU [G5U C22G] stands 0.09.
As for GGGGUCCACAGCAGAAGCGUUCACGUCGCCGCCCCUGUCAGAUUCUGGUGAAUCUGCGAAUUCUGCUGU [G5U G30C], the self-cleavage stood at 0.08.
As to GGGGUCCACAGCAGAAGCGUUCACGUCGCUGCCCCUGUCAGAUUCUGGUGAAUCUGCGAAUUCUGCUGU [G5U G30U], the self-cleavage is 0.0993.
Take GGGGUCCACAGCAGAAGCGUUCACGUCGCGGCCCCUGUCAGAUUCUGGUGAAUCUGCGAAUUUUGCUGU [G5U C63U]: the self-cleavage worked out at 0.24.
Under GGGGUCCACAGCAGAAGCGUUCACGUCGCGGCCCCUGUCAGAUUCUGGUGAAUCUGCGAAUUAUGCUGU [G5U C63A] stands 0.114; under GGGGUCCACAGCAGAAGCGUUCACGUCGCGGCCCCUGUCAGAUUCUGGUGAAUCUGCGAAUUGUGCUGU [G5U C63G], 0.0897; under GGGGUCCACAGCAGAAGCGUUCACGUCGCGGCCCCUGUCAGAUUCUGGUGAAUCUGAGAAUUCUGCUGU [G5U C57A], 0.11.
For the variant GGGGUCCACAGCAGAAGCGUUCACGUUGCGGCCCCUGUCAGAUUCUGGUGAAUCUGCGAAUUCUGCUGU [G5U C27U], the self-cleavage amounted to 0.032.
For GGGGUCCACAGCAGAAGCGUUCACGUGGCGGCCCCUGUCAGAUUCUGGUGAAUCUGCGAAUUCUGCUGU [G5U C27G], the self-cleavage is 0.0619.
